The values that follow come from the nanobody polyreactivity screen of Harvey et al. (2022).

The series can be described thus: yeast display, Sf9 membrane polyspecificity reagent, FACS + sequencing; frameworks hold sequencing errors. An outline of the steps:
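Genes from sorted yeast were amplified by colony PCR, read by MiSeq 2 × 250 sequencing and filtered on CDR length. These cells carried a synthetic nanobody library in Saccharomyces cerevisiae BJ5465 and were sorted by FACS into low and high (top ~1%) gates on anti-HA and streptavidin fluorescence. Polyreactivity is labelled according to the gate of origin.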
Take “QVQLVESGGGLVQAGGSLRLSCAASGSIFYGYAMGWYRQAPGKERELVAVITDGGGSTYYADSVKGRFTISRDNAKNTVYLQMNSLKPEDTAVYYCAADSWGPYYYSSYSYDYWGQGTQVTVSS”: the “polyreactivity (PSR sort gate)” value was “low polyreactivity”. For “QVQLVESGGGLVQAGGSLRLSCAASGSIFYHNAMGWYRQAPGKERELVAAITWSGSTTYYADSVKGRFTISRDNAKNTVYLQMNSLKPEDTAVYYCNAGNRHGHYDYWGQGTQVTVSS” the value was “low polyreactivity”; for “QVQLVESGGGLVQAGGSLRLSCAASGSIFYHYAMGWYRQAPGKERELVAAISWRGASTYYADSVKGRFTISRDNAKNTVYLQMNSLKPEDTAVYYCARLSSSHPLYRDEYWGQGTQVTVSS”, “high polyreactivity”; for “QVQLVESGGGLVQAGGSLRLSCAASGSIFYHYVMGWYRQAPGKERELVAAISSSGRTYYADSVKGRFTISRDNAKNTVYLQMNSLKPEDTAVYYCAADVHFGVGMDYWGQGTQVTVSS”, “low polyreactivity”.

For the sequence “QVQLVESGGGLVQAGGSLRLSCAASGSIFYIYAMGWYRKAPGKERELVASIDSGDSTNYADSVKGRFTISRDNAKNTVYLQMNSLKPEDTAVYYCNADTFSELTYYLYIGMDYWGQGTQVTVSS”, the “polyreactivity (PSR sort gate)” value was “low polyreactivity”.

With “QVQLVESGGGLVQAGGSLRLSCAASGSIFYIYAMGWYRQAPGKERELVAAITWRGGRTYYADSVKGRFTISRDNAKNTVYLQMNSLKPEDTAVYYCAALYAKYYYRYDYWGQGTQVTVSS”, the “polyreactivity (PSR sort gate)” value is recorded as “high polyreactivity”. For “QVQLVESGGGLVQAGGSLRLSCAASGSIFYKYGMGWYRQAPGKVRVLVAAIRASGDSTYYADSVKGRFTISRDNAKNTVYLQMNSQKPEDTAVYYCAARPNQSYYGLYYYWGQGTQVTVSS” the value was “low polyreactivity”.

Regarding “QVQLVESGGGLVQAGGSLRLSCAASGSIFYKYTMGWYRQAPGKERELVAAISRSGGSTYYADSVKGRFTISRDNAKNTVYLQMNSLKPEDTAVYYCATTRRVPGEYWGQGTQVTVSS”, the “polyreactivity (PSR sort gate)” value was “high polyreactivity”. For the sequence “QVQLVESGGGLVQAGGSLRLSCAASGSIFYLNAMGWYRQAPGKERELVAAINRGGSTSYADSVKGRFTISRDNAKNTVYLQMNSLKPEDTAVYYCAADHGGVQYSVRYDYWGQGTQVTVSS”, the “polyreactivity (PSR sort gate)” value is given as “low polyreactivity”. For “QVQLVESGGGLVQAGGSLRLSCAASGSIFYLYAMGWYRQAPGKERELVAAISSSGGRTYYADSVKGRFTISRDNAKNTVYLQMNSLKPEDTAVYYCAARYWAKYSYGYWGQGTQVTVSS” the value was “high polyreactivity”. Take “QVQLVESGGGLVQAGGSLRLSCAASGSIFYLYAMGWYRQAPGKERELVAAITSGDSTTYADSVKGRFTISRDNAKNTVYLQMNSLKPEDTAVYYCAADWPGLVGYHNSAENDYWGQGTQVTVSS”: the “polyreactivity (PSR sort gate)” value is given as “low polyreactivity”. Then “QVQLVESGGGLVQAGGSLRLSCAASGSIFYLYAMGWYRQAPGKERELVATITRGGSTNYADSVKGRFRISRDNAKNTDYVQMNSLKPEDTARYYCNARFFKPPYSKWSSRFDYWGQGTQVTVSS”, with “high polyreactivity”; and “QVQLVESGGGLVQAGGSLRLSCAASGSIFYPYAMGCYRQAPGKERELVAAITSSGGSTYYADSVKGRFTISRDNAKNTVYLQMNSLKPEDTAVYYCNAKGPYTAIYYKPFLGSTRFEYWGQGTQVTVSS”, with “high polyreactivity”; and “QVQLVESGGGLVQAGGSLRLSCAASGSIFYPYAMGWYRQAPGKERELVAAISYSGGSTYYADSVKGSFTISRDNAKNTVYLQMNSMKPEDTAVYYCNRRYWRRPYYKYDYWGQGTQVTVSS”, with “high polyreactivity”.

For the sequence “QVQLVESGGGLVQAGGSLRLSCAASGSIFYPYAMGWYRQAPGKERELVAAITSSTGSTYYADSVKGRFTISRDHAKNTVYLQMNSLKPEDTAVYYCAAAGYWSYFMMDYWGQGTQVTVSS”, the “polyreactivity (PSR sort gate)” value is “low polyreactivity”. Turning to “QVQLVESGGGLVQAGGSLRLSCAASGSIFYPYAMGWYRQAPGKERELVATISWSGSSTYYADSVKGRVTISRDNAKNTVYSQMNSLKPEDTAVYYCAVRYSVLSNYRYYYWGQGTQVTVSS”, the “polyreactivity (PSR sort gate)” value is recorded as “low polyreactivity”.
